Assay results: US20110111406A1 (published 2011)
Read-outs that look alike come from different tables or passages of the source.

T1: recombinant soluble human IL-6 receptor (SR344) (human, UniProt P08887 20-344)
T1 construct: In the 'membrane-type IL-6 receptor' Biacore assays the same SR344 was biotinylated and immobilized via streptavidin; also called soluble IL-6 receptor; membrane-type IL-6 receptor (as biotinylated SR344 immobilized on the sensor chip)
T1 sequence (looked up): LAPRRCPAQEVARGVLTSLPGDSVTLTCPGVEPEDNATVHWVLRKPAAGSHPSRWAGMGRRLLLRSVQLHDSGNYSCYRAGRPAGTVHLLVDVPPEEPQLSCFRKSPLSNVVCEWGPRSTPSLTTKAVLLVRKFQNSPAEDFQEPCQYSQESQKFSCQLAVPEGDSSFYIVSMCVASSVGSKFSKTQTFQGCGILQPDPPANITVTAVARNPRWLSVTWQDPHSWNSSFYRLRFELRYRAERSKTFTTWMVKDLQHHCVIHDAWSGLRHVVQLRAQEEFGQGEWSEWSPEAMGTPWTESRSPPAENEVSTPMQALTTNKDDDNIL

T2: soluble mouse IL-31 receptor (mouse, UniProt Q8K5B1 19-499)
T2 construct: Soluble form
T2 sequence (looked up): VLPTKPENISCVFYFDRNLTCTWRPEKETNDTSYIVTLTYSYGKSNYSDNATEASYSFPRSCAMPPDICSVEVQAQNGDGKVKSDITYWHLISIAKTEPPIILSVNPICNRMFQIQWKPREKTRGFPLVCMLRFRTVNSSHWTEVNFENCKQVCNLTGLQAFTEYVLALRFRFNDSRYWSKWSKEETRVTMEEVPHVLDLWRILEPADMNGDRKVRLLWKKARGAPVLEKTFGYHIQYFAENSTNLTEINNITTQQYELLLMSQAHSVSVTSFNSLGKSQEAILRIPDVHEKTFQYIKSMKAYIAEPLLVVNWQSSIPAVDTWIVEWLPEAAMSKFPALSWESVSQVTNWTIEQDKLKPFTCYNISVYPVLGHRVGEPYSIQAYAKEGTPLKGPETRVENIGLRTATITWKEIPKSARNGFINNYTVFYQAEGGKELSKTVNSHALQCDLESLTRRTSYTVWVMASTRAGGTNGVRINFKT

B1: CLH5/L73 (antibody, IgG1, V domains shown)
VH: QVQLQESGPGLVKPSETLSLTCAVSGYSISHDHAWSWVRQPPGEGLEWIGHISYSGITNYNPHLKGRVTISRDTSKNQFSLKLSSVTAADTAAYYCARFLARITAHDHWGEGTLVTVSS
VL: DIQMTQSPSSLSASVGDSVTITCQASQHISSHLNWYQQKPGKAPELLIYYGSHLHSGVPSRFSGSGSGTDFTFTISSLEAEDAATYYCGQGNRLPYTFGQGTKVEIE
B2: H170/L82 (antibody, IgG1, V domains shown)
VH: QVQLQESGPGLVKPSETLSLTCAVSGHSISHHHAHSWVRQPPGEGLEWIGYISYSGITHYNPHLKGRVTISRDTSKNQFSLKLSSVTAADTAAYYCARVLARITAMDHWGEGTLVTVSS
VL: DIQMTQSPSSLSASVGDSVTITCQASQDISSHLNWYQQKPGKAPELLIYYGSHLHSGVPSRFSGSGSGTDFTFTISSLEAEDAATYYCGQGNRLPYTFGQGTKVEIE
notes: expressed and purified as IgG (IgG1); also called H170/L82-IgG1
B3: Anti-IL31R clone 1 (antibody, human IgG1, lambda, V domains shown)
VH: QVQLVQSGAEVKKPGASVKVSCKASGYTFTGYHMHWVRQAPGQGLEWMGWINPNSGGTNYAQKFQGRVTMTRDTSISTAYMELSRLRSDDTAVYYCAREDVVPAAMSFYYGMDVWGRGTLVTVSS
VL: LPVLTQPPSVSVAPGQTARITCGGNNIGSKTVYWYQQEPGQAPVLVVYDDTDRPAGIPERFSGANSGNTATLTISRVEAGDEADYYCQVWDSSTDHGVFGGGTKLTVLG

Key:
[1] = biological target: T1, recombinant soluble human IL-6 receptor …; experiment: Biacore T100, integrated RU of SR344 bound over ten cycles of pH 7.4 binding and pH 5.8 exposure, 37C
Description: Biacore (GE Healthcare) was used to evaluate that the antibodies binding at pH 7.4 and dissociating at pH 5.8 were able to bind to the antigen multiple times. The antibody to be evaluated was bound to a recomb-protein A/G (Pierce)-immobilized sensor chip by the amine coupling method, and a mobile phase of pH 7.4 was allowed to flow (step 1). SR344 solution adjusted to pH 7.4 was then allowed to flow as an analyte to bind SR344 to the antibody at pH 7.4 (step 2). This binding at pH 7.4 mimics the antigen binding in plasma. Subsequently, buffer adjusted to pH 5.8 alone (not containing SR344) was added as an analyte to expose the antigen bound to the antibody to acidic conditions (step 3). This dissociation at pH 5.8 mimics the binding state of antigen-antibody complexes in endosomes. Subsequently, step 2 was repeated. This mimics the rebinding of antibody that has been returned to plasma by FcRn to a new antigen. Subsequently, […] was repeated to expose the antibody-antigen complex to acidic conditions.
The produced pH-dependent binding clones described above were analyzed using Biacore T100 (GE Healthcare) for their ability to bind to the antigen SR344 multipe times at pH 5.8 and pH 7.4. More specifically, the analysis was carried out as follows. All the measurements were carried out at 37° C. […]

[2] = biological target: T1, recombinant soluble human IL-6 receptor …; experiment: Biacore T100, SR344 as analyte; KD(pH5.8)/KD(pH7.4) compared with WT
Description: (§1) Kinetic analyses of antigen-antibody reactions at pH 5.8 and pH 7.4 were carried out using Biacore T100 (GE Healthcare) on the four antibodies: humanized PM1 antibody (WT) and H3pI/L73, CLH5/L73, and H170/L82 produced in Examples 2 and 4 (buffer: 10 mM MES (pH 7.4 or pH 5.8), 150 mM NaCl, and 0.05% Tween 20). Various antibodies were bound onto a sensor chip immobilized with recomb-protein A/G (Pierce) by amine coupling. SR344 adjusted to concentrations of 9.8 to 400 nM was injected to the chip as an analyte. […] All the measurements were carried out at 37° C. Association rate constants kₐ (1/Ms) and dissociation rate constants kd (1/s) were calculated using Biacore T100 Evaluation Software (GE Healthcare), and dissociation constants KD (M) were calculated on the basis of those values (Table 5). Moreover, the ratio of the affinities at pH 5.8 and pH 7.4 were calculated for each clone to evaluate pH-dependent binding. All the measurements were carried out at 37° C.

[3] = biological target: T1, recombinant soluble human IL-6 receptor …; experiment: Biacore T100, antibody captured on protein A/G, SR344 as analyte, 37C; ratio of KD at pH 5.8 to pH 7.4
Description: as §1

[4] = biological target: T1, recombinant soluble human IL-6 receptor …; experiment: as above; remark: listed apart in the source
Description: (§2) Kinetic analysis of antigen-antibody reactions at pH 7.4 and pH 5.8 was carried out using Biacore T100 (GE Healthcare) for the four types of antibodies prepared: WT-IgG1, H54/L28-IgG1, H170/L82-IgG1, and Fv4-IgG1(buffer: 10 mM MES (pH 7.4 or pH 5.8), 150 mM NaCl, 0.05% Surfactant-P20). The antibodies were bound to a sensor chip on which recomb-protein A/G (Pierce) was immobilized by amine coupling, and SR344 adjusted to an appropriate concentration was injected therein as an analyte. The association with and dissociation from SR344 of each type of antibody were observed on a real-time basis. All the measurements were carried out at 37° C. Association rate constants kₐ (1/Ms) and dissociation rate constants kd (1/s) were calculated using Biacore T100 Evaluation Software (GE Healthcare), and dissociation constants KD (M) were calculated based on those values (Table 17).

[5] = biological target: T1, recombinant soluble human IL-6 receptor …; experiment: Biacore T100, antibody captured on protein A/G, SR344 as analyte, 37C; ratio of kd at pH 5.8 to pH 7.4
Description: as §2

[6] = biological target: T2, soluble mouse IL-31 receptor; experiment: Biacore T100, soluble mouse IL-31 receptor as analyte; KD(pH 5.5)/KD(pH 7.4) compared with Anti-IL31R wild type
Description: Kinetic analysis of antigen-antibody reactions at pH 5.5 and pH 7.4 was carried out using Biacore T100 (GE Healthcare) for the two types of antibodies prepared as mentioned above: Anti-IL31R wild type and Anti-IL31R clone 1 (buffer: DPBS(−) (pH 7.4 or pH 5.5), 150 mM NaCl, 0.01% Tween 20, 0.02% NaN₃). The antibodies were bound to a sensor chip on which recomb-protein A/G (Pierce) was immobilized by amine coupling, and then the soluble mouse IL-31 receptor (prepared according to the method described in WO 2007/142325) adjusted to an appropriate concentration was injected therein as an analyte. All the measurements were carried out at 25° C. Association rate constants kₐ (1/Ms) and dissociation rate constants kd (1/s) were calculated using Biacore T100 Evaluation Software (GE Healthcare), and dissociation constants KD (M) were calculated based on those values (Table 16). Furthermore, the ratio of affinity at pH 5.5 and pH 7.4 was calculated for each clone to evaluate the pH-dependent binding.

Binder | total amount of antigen bound over ten cycles relative to WT [1] | pH-dependent binding (affinity ratio) relative to WT [2] | KD(pH5.8)/KD(pH7.4) [3] | KD(pH5.8)/KD(pH7.4) [4] | kd(pH 5.8)/kd(pH 7.4) [5] | pH-dependent binding ability relative to WT [6]
B1 | ~4 times | 15 times | 66.1 |  |  | 
B2 | ~4 times | 15 times | 394 | 61.9 | 11.4 | 
B3 |  |  |  |  |  | ~300 times
